According to patent US20200199204A1 (UNITED STATES OF AMERICA AS REPRESENTED BY THE SECRETARY …, published 2020):

Tests used:
Test in all cases: cell-based or functional assay
HIV-1 Env of CAP256.PI = HIV-1 Env of CAP256.PI (HIV-1)
HIV-1 Env of CAP256.SU = HIV-1 Env of CAP256.SU (HIV-1)
HIV-1 Env of 96ZM651.02 = HIV-1 Env of 96ZM651.02 (HIV-1)
HIV-1 Env of CAP210.E8 = HIV-1 Env of CAP210.E8 (HIV-1)
HIV-1 Env of CAP244.D3 = HIV-1 Env of CAP244.D3 (HIV-1)
HIV-1 Env of CAP45.G3 = HIV-1 Env of CAP45.G3 (HIV-1)
HIV-1 Env of DU156.12 = HIV-1 Env of DU156.12 (HIV-1)
HIV-1 Env of DU172.17 = HIV-1 Env of DU172.17 (HIV-1)
HIV-1 Env of DU422.01 = HIV-1 Env of DU422.01 (HIV-1)
HIV-1 Env of ZM109.4 = HIV-1 Env of ZM109.4 (HIV-1)
HIV-1 Env of ZM135.10a = HIV-1 Env of ZM135.10a (HIV-1)
HIV-1 Env of ZM197.7 = HIV-1 Env of ZM197.7 (HIV-1)
HIV-1 Env of ZM214.15 = HIV-1 Env of ZM214.15 (HIV-1)
HIV-1 Env of ZM233.6 = HIV-1 Env of ZM233.6 (HIV-1)
HIV-1 Env of ZM249.1 = HIV-1 Env of ZM249.1 (HIV-1)
HIV-1 Env of ZM53.12 = HIV-1 Env of ZM53.12 (HIV-1)
HIV-1 Env of 0260.v5.c36 = HIV-1 Env of 0260.v5.c36 (HIV-1)
HIV-1 Env of BG505.w6m = HIV-1 Env of BG505.w6m (HIV-1)
HIV-1 Env of KER2008.12 = HIV-1 Env of KER2008.12 (HIV-1)
HIV-1 Env of KER2018.11 = HIV-1 Env of KER2018.11 (HIV-1)
HIV-1 Env of MB201 = HIV-1 Env of MB201 (HIV-1)
HIV-1 Env of MB539.2B7 = HIV-1 Env of MB539.2B7 (HIV-1)
HIV-1 Env of Q168.a2 = HIV-1 Env of Q168.a2 (HIV-1)
HIV-1 Env of Q23.17 = HIV-1 Env of Q23.17 (HIV-1)
HIV-1 Env of Q259.d2.17 = HIV-1 Env of Q259.d2.17 (HIV-1)
HIV-1 Env of Q461.e2 = HIV-1 Env of Q461.e2 (HIV-1)
HIV-1 Env of Q769.d22 = HIV-1 Env of Q769.d22 (HIV-1)
HIV-1 Env of Q842.d12 = HIV-1 Env of Q842.d12 (HIV-1)
HIV-1 Env of RW020.2 = HIV-1 Env of RW020.2 (HIV-1)
HIV-1 Env of UG037.8 = HIV-1 Env of UG037.8 (HIV-1)
HIV-1 Env of 6535.3 = HIV-1 Env of 6535.3 (HIV-1)
HIV-1 Env of AC10.29 = HIV-1 Env of AC10.29 (HIV-1)
HIV-1 Env of CAAN.A2 = HIV-1 Env of CAAN.A2 (HIV-1)
HIV-1 Env of PVO.04 = HIV-1 Env of PVO.04 (HIV-1)
HIV-1 Env of QH0692.42 = HIV-1 Env of QH0692.42 (HIV-1)
HIV-1 Env of REJO.67 = HIV-1 Env of REJO.67 (HIV-1)
HIV-1 Env of RHPA.7 = HIV-1 Env of RHPA.7 (HIV-1)
HIV-1 Env of SC422.8 = HIV-1 Env of SC422.8 (HIV-1)
HIV-1 Env of THRO.18 = HIV-1 Env of THRO.18 (HIV-1)
HIV-1 Env of TRJO.58 = HIV-1 Env of TRJO.58 (HIV-1)
HIV-1 Env of TRO.11 = HIV-1 Env of TRO.11 (HIV-1)
HIV-1 Env of WITO.33 = HIV-1 Env of WITO.33 (HIV-1)
HIV-1 Env of 191821.E6.1 = HIV-1 Env of 191821.E6.1 (HIV-1)
HIV-1 Env of 3016.V5.c36 = HIV-1 Env of 3016.V5.c36 (HIV-1)
HIV-1 Env of 6405.v4.c34 = HIV-1 Env of 6405.v4.c34 (HIV-1)
HIV-1 Env of C1080.c3 = HIV-1 Env of C1080.c3 (HIV-1)
HIV-1 Env of CM244.ec1 = HIV-1 Env of CM244.ec1 (HIV-1)
HIV-1 Env of CNE3 = HIV-1 Env of CNE3 (HIV-1)
HIV-1 Env of TH976.17 = HIV-1 Env of TH976.17 (HIV-1)

B1: CAP256-VRC26.02 (antibody, V domains shown)
VH: EVQLVESGGGVVQPGRSLRLSCAASQFSFGNYGMHWVRQAPGKGLEWVAAISFAGTKTNYADSVKGRFTISRDNSKNTVYLQMNSLRAEDTALYFCAKDIREYECEYWTSDYYDFGRPQPCIDSRGVVGTFDVWGQGTMVTVSS
VL: QSVLTQPPSVSAAPGQKVTISCSGSNSNIGNKDVSWYQQIPATAPKLLIYENNKRPSGISDRFSGSKSGTSATLAITGLQTGDEADYYCATWDGRVSVIGTGTNVIVLG
neutralization IC50 (HIV-1 Env of CAP256.PI): > 50 µg/mL | neutralization IC50 (HIV-1 Env of CAP256.SU): 0.015 µg/mL | neutralization IC50 (HIV-1 Env of 96ZM651.02): > 50 µg/mL | neutralization IC50 (HIV-1 Env of CAP210.E8): 0.062 µg/mL | neutralization IC50 (HIV-1 Env of CAP244.D3): > 50 µg/mL | neutralization IC50 (HIV-1 Env of CAP45.G3): > 50 µg/mL | neutralization IC50 (HIV-1 Env of DU156.12): > 50 µg/mL | neutralization IC50 (HIV-1 Env of DU172.17): > 50 µg/mL | neutralization IC50 (HIV-1 Env of DU422.01): > 50 µg/mL | neutralization IC50 (HIV-1 Env of ZM109.4): > 50 µg/mL | neutralization IC50 (HIV-1 Env of ZM135.10a): > 50 µg/mL | neutralization IC50 (HIV-1 Env of ZM197.7): 1.97 µg/mL | neutralization IC50 (HIV-1 Env of ZM214.15): > 50 µg/mL | neutralization IC50 (HIV-1 Env of ZM233.6): 0.701 µg/mL | neutralization IC50 (HIV-1 Env of ZM249.1): > 50 µg/mL | neutralization IC50 (HIV-1 Env of ZM53.12): 0.043 µg/mL | neutralization IC50 (HIV-1 Env of 0260.v5.c36): > 50 µg/mL | neutralization IC50 (HIV-1 Env of BG505.w6m): > 50 µg/mL | neutralization IC50 (HIV-1 Env of KER2008.12): > 50 µg/mL | neutralization IC50 (HIV-1 Env of KER2018.11): 0.18 µg/mL | neutralization IC50 (HIV-1 Env of MB201): > 50 µg/mL | neutralization IC50 (HIV-1 Env of MB539.2B7): > 50 µg/mL | neutralization IC50 (HIV-1 Env of Q168.a2): > 50 µg/mL | neutralization IC50 (HIV-1 Env of Q23.17): > 50 µg/mL | neutralization IC50 (HIV-1 Env of Q259.d2.17): > 50 µg/mL | neutralization IC50 (HIV-1 Env of Q461.e2): > 50 µg/mL | neutralization IC50 (HIV-1 Env of Q769.d22): > 50 µg/mL | neutralization IC50 (HIV-1 Env of Q842.d12): > 50 µg/mL | neutralization IC50 (HIV-1 Env of RW020.2): > 50 µg/mL | neutralization IC50 (HIV-1 Env of UG037.8): > 50 µg/mL | neutralization IC50 (HIV-1 Env of 6535.3): > 50 µg/mL | neutralization IC50 (HIV-1 Env of AC10.29): > 50 µg/mL | neutralization IC50 (HIV-1 Env of CAAN.A2): > 50 µg/mL | neutralization IC50 (HIV-1 Env of PVO.04): 7.98 µg/mL | neutralization IC50 (HIV-1 Env of QH0692.42): > 50 µg/mL | neutralization IC50 (HIV-1 Env of REJO.67): > 50 µg/mL | neutralization IC50 (HIV-1 Env of RHPA.7): > 50 µg/mL | neutralization IC50 (HIV-1 Env of SC422.8): > 50 µg/mL | neutralization IC50 (HIV-1 Env of THRO.18): > 50 µg/mL | neutralization IC50 (HIV-1 Env of TRJO.58): > 50 µg/mL | neutralization IC50 (HIV-1 Env of TRO.11): > 50 µg/mL | neutralization IC50 (HIV-1 Env of WITO.33): > 50 µg/mL | neutralization IC50 (HIV-1 Env of 191821.E6.1): > 50 µg/mL | neutralization IC50 (HIV-1 Env of 3016.V5.c36): 0.057 µg/mL | neutralization IC50 (HIV-1 Env of 6405.v4.c34): > 50 µg/mL | neutralization IC50 (HIV-1 Env of C1080.c3): > 50 µg/mL | neutralization IC50 (HIV-1 Env of CM244.ec1): 2.03 µg/mL | neutralization IC50 (HIV-1 Env of CNE3): > 50 µg/mL | neutralization IC50 (HIV-1 Env of TH976.17): > 50 µg/mL
